Literature values, collected in article PMC4650670.

Target: actin (Oryctolagus cuniculus) (UniProt P68135)

Kd: 220 µM
Substance: nebulin repeat fragment (from UniProt P20929)
